The results in this text go back to the PETadex activity labels.

Substrate in this data set: BHET
The conditions noted are these: 120 h.

B1: unnamed (protein)
chain: MISTRRFPMRRLAIGLVFVFAAVLGACDWRGPTPTEQLLTASTGPFTVSTLAVPTSAGFGGGTIYYPSTTPGPFAVVSLSPGFTESQSAIAGWGPRLASHGFVTIIINTSNPFIDPSQRSTEQRQALTYVVTQGQTSGSPIFGKVDGQRRGVGGHSMGGGASLISAQADPTIRAVMPMAPWNSSASFPGITSPTLILACQNDGIAPVGSHASPMYNSIPASTKKEYISVAGGDHSCANAPTGGGSAVGKFGVAFLKRFLDNDGRYDPWTCGASKPVAGGSLSEVRSTCPF
On to B1, for which the plate clearing result was “not clears the plate”.

B2: unnamed (protein)
chain: MQRKRYNTITNRARASLLAGVGLAFFSVLAQADVLFQENFDSSLGQFTSTGSVSVTTSGARMAGSFGGTDGAITSSPISTVGFTGITLTLTRTTTGLDSGEAGIAEFSTNGSTYTVIQSLQTASGAVTLNLPATAGGQSSLRLRFRVNASSSTEYFTVDSIRLEGTPGSGGGGGGTNPYQRGPAPTTSSLDASRGPFSVGSRTVSDTQVSGYDGGTLWYPTNTSEGPFAAIAIIPGFLSSEGSIREWGPRLASWGFVVITVETLTYGDLPPSRRDQLIAAMNDVLMWSDQSGHPIYGKVDKTRQALMGWSMGGGGTLLGLQENPTRFKAGIGLAPWNSTETFTSSIRQPVLIFACESDIIAPVASHAYPFYRNMPTTNKKAFAEVNNGDHFCANDPRNNSGRLGRYGVSWMKRFLDDDTRFTQFLCGTHSTWTFSRYLSTCPY
For B2, the plate clearing result is given as “not clears the plate”.

B3: unnamed (protein)
chain: MKSFLKKIYLGTGMLLVSANALSYTPAPTPNPTPITTPVECQDDCDFSRGPNPTSSSIEGVGPYSVATQNVPSSVSGFGGGTIHYPRGISGTVGAIAVVPGFVSPESSIIWWGPRLASHGFVVITIATNSIFDQPASREAQLGRALDYVINQNNSSNSPISGLVDTSRLGAMGWSMGGGGSLRLASGDRLSAVIPLAPWNEGSRGFRQLETPTLVIACERDLIAPVGVHASPFYNAIPSTTDKAFLEVNNGSHSCANGGGINGGLLSKYGVSWMKRFIDNDTRYQQFLCGPNHAANPAISEYRDTCNY
As for B3, the plate clearing result was “not clears the plate”.

B4: unnamed (protein)
chain: MFPYVAVRVTEETNSRRTTLSNKAATRVSFNRQETDVKFKFVKTALVAAAMACSASAFAQYQKGPDPTTSSLERAGSFATRTLNVSSLSASGFGGGRIWYPTASGSYGVVAVSPGFTGTASTMYFWGERLSSHGFVVIVIETNTLYDQPDSRARQLTSALNYVVSQGNSRTSALYGKVDGNRRAVAGHSMGGGGTLIAAADNPSLKAAIPMAPWNLSSLSFSRIRVPTFIFSCQSDAIAPVAQHSNPFYNAIPSTTSKNLVEMRLDDHFCVMNGGGHYETLGKLGIAWVKRFVDQDTRYSKFLCGNEYNSTVRSTEVSSNRNNCPY
As for B4, the plate clearing entry was “not clears the plate”.

B5: unnamed (protein)
chain: MKSQFRKKIKKAKLESALKVFGAFMFASAISTPAAFAINPGGNSDGNSDAGCNSNCSLGIDPTSEMLEKEQGPYVIDYIDIPKSVAGFAGGRIHFPKGLDQRLGLVVIGPGFLYTDESSSRWLGPRLASNGFVTVNINFNTVMDQPDMRANQYDKALDYVIKLSKDSSSPLYGLVDENRLGAAGWSMGGGAALKLSNMRPLKAIMPWAPWYIPAGAFSSVQTPSLIIACKGDIIAPEGIHASAFYNVIPDSTPKEYVKFAKGNHWCSNNRSNYKPLIGKLSIAWFKRFMDEDNRYEKFICDGDIKDESGVAEFRDNCGSWK
As for B5, the plate clearing entry is listed as “not clears the plate”.

B6: unnamed (protein)
chain: MTTSNTRTLARLALAAAALLLSAAAQAQANPYQRGPDPTAASLEATAGPFAVATTKVASPSGYGGGTVYYPTTTEGPFGLIAVAPGFTETQSAISWWGPRLASHGFVVITIDTKSTLDQPASRAKQLMAALNYVVALSQTSSSPFYGKVDASRQGVMGHSMGGGGTLEAARDNPTLKAAIPLAPWNTTKNFSKVTVPTLIIACENDAIAPVSSHASPFYDSLPSSLDKAYLELKGADHFCTNSSATNKTVIGKYGVAWMKRFVDNDTRYSPFLCGAPHQADLSGSVISRYKDNCPY
For B6, the plate clearing entry is recorded as “not clears the plate”.

B7: unnamed (protein)
chain: MKFEPLPGASPAVQPSMRFVLKRAGMATALLLSSFAAQAQVALVQENFSAGLGNFTAVGTVNTSDGSARLQGCYGCTDAVITSNAISTQGFTNLSLSFDRATAGLDTGEAGTAEFSTDGANWTIVESTRTTTTGRVSFALPASAAAQAALRLRFRINASLSSETYVVDNIQLTGTPGDPGDPDDPGANPFAKGPNPTAELLESSTGPFTYSSTVVARSAASGYGGGTIYHPTNVAGPFAAIAISPGYTGTKSTMSWWGQRLASHGFVVITIDTNSTTDQPSSRATQLMASLRQLVTFSNTSSHPIYRKVDPNRLGVMGHSMGGGGTLIAARDNPTLKAAIPLAPWSSVGNTNFSSVQVPTLVVACEADAIAPVAQHASPFYNSISGSTRKAYIEMNNGDHLCVMTGNSYTRIMGKYGVSWMKRFMDNDTRYSPFLCGAPHQADLSNAQVSEYRENCPY
Consider B7, for which the plate clearing entry is given as “clears the plate (z > 3 vs empty vector)”.
